Measurements: patent publication US20200262877A1, “ION CHANNEL-BINDING PEPTIDES AND METHODS OF USE THEREOF” (priority 2017, published 2020)

What was measured:
[1] = target: T1, Cav2.1 (Homo sapiens, UniProt O00555); experiment: cell-based; settings: 100% = no change, <100% = inhibition
T1 construct: host or cells: HEK293 or CHO
Method: (§1) This example describes a method for assaying ion channel activity in cells.
(§2) Peptides were screened in duplicate at final concentrations of 20 μM and 200 nM, as determined by amino acid analysis, and diluted into HEPES buffered physiological saline (HBPS). HEK293 or CHO cells from the American Type Culture Collection (ATCC) were transfected with the appropriate ion channel before use. HEK293 cells were grown in Dulbecco's Modified Eagle Medium/Nutrient Mixture F-12, and CHO cells were cultured in Ham's F-12 media. All cultures were supplemented with 10% fetal bovine serum, 100 U/ml penicillin G, 100 μg/ml streptomycin sulfate, and the appropriate selection antibiotics. Prior to use, cells were washed twice with Hank's Balanced Salt Solution, and treated with Accutase cell detachment solution (Sigma-Aldrich). Cells were then washed. Peptides and controls were incubated with cells for at least five minutes.
(§3) Percent inhibition was defined as: (1-(Ipeptide/Icontrol))×100%).
(§4) Percent values were calculated using the following formula: % activation=(IPeptide/Icontrol)×100%, where IPeptide is the current produced by co-application a peptide with agonist, and Icontrol refers to the current produced by stimulation in control. Control used for each ion channel is the reference compound matched to a particular channel, as illustrated in TABLE 10 below.

[2] = target: T2, Cav2.2 (Homo sapiens, UniProt Q00975); experiment: cell-based; settings: 100% = no change, <100% = inhibition
T2 construct: host or cells: HEK293 or CHO
Method: as §1, §2, §3, §4

[3] = target: T3, Kv2.1 (Homo sapiens, UniProt Q14721); experiment: cell-based; settings: 100% = no change, <100% = inhibition
T3 construct: host or cells: HEK293 or CHO
Method: as §1, §2, §3, §4

[4] = target: T4, NR2B (Homo sapiens, UniProt Q13224); experiment: Ion channel panel (IonWorks Barracuda): NR2B; format: cell-based; settings: 100% = no change, <100% = inhibition
T4 construct: host or cells: HEK293 or CHO
Method: as §1, §2, §3, §4

[5] = target: T5, Nav1.7 (Homo sapiens, UniProt Q15858); experiment: cell-based; format: cell-based; settings: 100% = no change; for Activity of Nav1.7 with peptide, expressed as a percentage of the reference compound: peptide at 0.2 μM; for Activity of Nav1.7 with peptide (percentage of the reference compound): peptide at 20 μM
T5 construct: host or cells: HEK293 or CHO
T5 sequence (Q15858 whole entry): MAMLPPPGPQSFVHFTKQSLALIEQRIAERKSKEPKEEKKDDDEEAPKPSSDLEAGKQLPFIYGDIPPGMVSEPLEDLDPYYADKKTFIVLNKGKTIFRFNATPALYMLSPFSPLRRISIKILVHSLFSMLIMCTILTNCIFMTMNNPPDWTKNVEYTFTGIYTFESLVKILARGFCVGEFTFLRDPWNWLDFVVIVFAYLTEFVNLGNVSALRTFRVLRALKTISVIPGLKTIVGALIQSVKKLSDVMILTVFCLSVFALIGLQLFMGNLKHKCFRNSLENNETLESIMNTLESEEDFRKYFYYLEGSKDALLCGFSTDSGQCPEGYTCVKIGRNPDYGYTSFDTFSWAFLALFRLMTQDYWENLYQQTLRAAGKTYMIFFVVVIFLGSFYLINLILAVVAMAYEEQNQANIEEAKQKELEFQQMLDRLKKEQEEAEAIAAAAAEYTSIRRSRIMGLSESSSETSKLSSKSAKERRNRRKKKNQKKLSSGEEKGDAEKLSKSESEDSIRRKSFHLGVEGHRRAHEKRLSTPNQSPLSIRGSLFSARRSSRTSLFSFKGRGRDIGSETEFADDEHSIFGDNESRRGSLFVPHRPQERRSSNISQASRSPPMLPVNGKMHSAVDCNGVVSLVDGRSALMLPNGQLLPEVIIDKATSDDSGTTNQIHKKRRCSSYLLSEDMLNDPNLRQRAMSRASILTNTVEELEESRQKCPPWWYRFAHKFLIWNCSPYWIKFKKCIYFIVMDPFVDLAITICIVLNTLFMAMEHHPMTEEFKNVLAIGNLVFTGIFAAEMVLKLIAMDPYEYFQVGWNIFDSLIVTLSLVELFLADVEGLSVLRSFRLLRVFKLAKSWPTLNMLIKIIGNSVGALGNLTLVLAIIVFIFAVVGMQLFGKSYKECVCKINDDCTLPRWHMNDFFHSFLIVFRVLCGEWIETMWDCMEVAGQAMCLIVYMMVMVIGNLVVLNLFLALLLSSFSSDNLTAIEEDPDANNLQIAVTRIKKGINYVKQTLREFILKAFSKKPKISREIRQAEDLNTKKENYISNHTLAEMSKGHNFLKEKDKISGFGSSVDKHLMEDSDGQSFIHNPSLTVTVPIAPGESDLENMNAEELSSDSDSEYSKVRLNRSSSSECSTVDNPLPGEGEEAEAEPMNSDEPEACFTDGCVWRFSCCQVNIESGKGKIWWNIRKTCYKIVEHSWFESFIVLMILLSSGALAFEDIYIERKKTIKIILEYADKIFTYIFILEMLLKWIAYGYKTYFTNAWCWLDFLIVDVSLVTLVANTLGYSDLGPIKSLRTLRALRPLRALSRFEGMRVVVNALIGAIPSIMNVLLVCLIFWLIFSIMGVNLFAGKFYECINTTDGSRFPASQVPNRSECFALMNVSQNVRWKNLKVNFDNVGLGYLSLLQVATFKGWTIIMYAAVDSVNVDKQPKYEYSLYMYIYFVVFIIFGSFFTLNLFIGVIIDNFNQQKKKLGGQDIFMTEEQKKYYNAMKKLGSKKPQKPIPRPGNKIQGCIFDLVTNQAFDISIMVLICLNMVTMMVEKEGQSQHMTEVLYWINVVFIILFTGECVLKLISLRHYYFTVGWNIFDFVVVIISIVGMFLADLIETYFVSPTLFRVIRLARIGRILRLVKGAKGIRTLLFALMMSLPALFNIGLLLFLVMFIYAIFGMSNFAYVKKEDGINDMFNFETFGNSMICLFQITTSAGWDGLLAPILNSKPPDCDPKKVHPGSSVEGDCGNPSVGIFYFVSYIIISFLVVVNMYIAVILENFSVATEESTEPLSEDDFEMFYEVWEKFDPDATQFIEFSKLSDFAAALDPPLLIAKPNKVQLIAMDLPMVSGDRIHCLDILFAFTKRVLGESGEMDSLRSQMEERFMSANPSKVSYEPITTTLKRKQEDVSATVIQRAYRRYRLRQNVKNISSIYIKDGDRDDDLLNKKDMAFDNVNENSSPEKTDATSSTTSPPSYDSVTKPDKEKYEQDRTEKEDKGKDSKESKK
Method: as §1
as §2, with “Peptides were screened in duplicate at final concentrations of 20 μM and 200 nM, as determined by amino acid analysis, and diluted into HEPES buffered physiological saline (HBPS).” left out
as §3, §4

[6] = target: T6, TRPA1 (Homo sapiens, UniProt O75762); experiment: Ion channel panel (IonWorks Barracuda): TRPA1; format: cell-based; settings: 100% = no change, <100% = inhibition
T6 construct: host or cells: HEK293 or CHO
Method: as §1, §2, §3, §4

[7] = target: T7, NR2A (Homo sapiens, UniProt Q12879); experiment: Ion channel panel (IonWorks Barracuda): NR2A; format: cell-based; settings: 100% = no change, <100% = inhibition
T7 construct: host or cells: HEK293 or CHO
Method: as §1, §2, §3, §4

[8] = target: T8, α4β2 (Homo sapiens, UniProt P17787+P43681); experiment: Ion channel panel (IonWorks Barracuda): α4β2; format: cell-based; settings: 100% = no change, <100% = inhibition
T8 construct: host or cells: HEK293 or CHO
Method: as §1, §2, §3, §4

[9] = target: hERG (Homo sapiens, UniProt Q12809); experiment: in vitro; settings: 100% = no change, <100% = inhibition
Method: as §1, §2, §3, §4

[10] = target: Nav1.5 (Homo sapiens, UniProt Q14524); experiment: in vitro; settings: 100% = no change; for Activity of Nav1.5 with peptide, expressed as a percentage of the reference compound: peptide at 0.2 μM; for Activity of Nav1.5 with peptide (percentage of the reference compound): peptide at 20 μM
Sequence of Nav1.5 (Q14524 whole entry): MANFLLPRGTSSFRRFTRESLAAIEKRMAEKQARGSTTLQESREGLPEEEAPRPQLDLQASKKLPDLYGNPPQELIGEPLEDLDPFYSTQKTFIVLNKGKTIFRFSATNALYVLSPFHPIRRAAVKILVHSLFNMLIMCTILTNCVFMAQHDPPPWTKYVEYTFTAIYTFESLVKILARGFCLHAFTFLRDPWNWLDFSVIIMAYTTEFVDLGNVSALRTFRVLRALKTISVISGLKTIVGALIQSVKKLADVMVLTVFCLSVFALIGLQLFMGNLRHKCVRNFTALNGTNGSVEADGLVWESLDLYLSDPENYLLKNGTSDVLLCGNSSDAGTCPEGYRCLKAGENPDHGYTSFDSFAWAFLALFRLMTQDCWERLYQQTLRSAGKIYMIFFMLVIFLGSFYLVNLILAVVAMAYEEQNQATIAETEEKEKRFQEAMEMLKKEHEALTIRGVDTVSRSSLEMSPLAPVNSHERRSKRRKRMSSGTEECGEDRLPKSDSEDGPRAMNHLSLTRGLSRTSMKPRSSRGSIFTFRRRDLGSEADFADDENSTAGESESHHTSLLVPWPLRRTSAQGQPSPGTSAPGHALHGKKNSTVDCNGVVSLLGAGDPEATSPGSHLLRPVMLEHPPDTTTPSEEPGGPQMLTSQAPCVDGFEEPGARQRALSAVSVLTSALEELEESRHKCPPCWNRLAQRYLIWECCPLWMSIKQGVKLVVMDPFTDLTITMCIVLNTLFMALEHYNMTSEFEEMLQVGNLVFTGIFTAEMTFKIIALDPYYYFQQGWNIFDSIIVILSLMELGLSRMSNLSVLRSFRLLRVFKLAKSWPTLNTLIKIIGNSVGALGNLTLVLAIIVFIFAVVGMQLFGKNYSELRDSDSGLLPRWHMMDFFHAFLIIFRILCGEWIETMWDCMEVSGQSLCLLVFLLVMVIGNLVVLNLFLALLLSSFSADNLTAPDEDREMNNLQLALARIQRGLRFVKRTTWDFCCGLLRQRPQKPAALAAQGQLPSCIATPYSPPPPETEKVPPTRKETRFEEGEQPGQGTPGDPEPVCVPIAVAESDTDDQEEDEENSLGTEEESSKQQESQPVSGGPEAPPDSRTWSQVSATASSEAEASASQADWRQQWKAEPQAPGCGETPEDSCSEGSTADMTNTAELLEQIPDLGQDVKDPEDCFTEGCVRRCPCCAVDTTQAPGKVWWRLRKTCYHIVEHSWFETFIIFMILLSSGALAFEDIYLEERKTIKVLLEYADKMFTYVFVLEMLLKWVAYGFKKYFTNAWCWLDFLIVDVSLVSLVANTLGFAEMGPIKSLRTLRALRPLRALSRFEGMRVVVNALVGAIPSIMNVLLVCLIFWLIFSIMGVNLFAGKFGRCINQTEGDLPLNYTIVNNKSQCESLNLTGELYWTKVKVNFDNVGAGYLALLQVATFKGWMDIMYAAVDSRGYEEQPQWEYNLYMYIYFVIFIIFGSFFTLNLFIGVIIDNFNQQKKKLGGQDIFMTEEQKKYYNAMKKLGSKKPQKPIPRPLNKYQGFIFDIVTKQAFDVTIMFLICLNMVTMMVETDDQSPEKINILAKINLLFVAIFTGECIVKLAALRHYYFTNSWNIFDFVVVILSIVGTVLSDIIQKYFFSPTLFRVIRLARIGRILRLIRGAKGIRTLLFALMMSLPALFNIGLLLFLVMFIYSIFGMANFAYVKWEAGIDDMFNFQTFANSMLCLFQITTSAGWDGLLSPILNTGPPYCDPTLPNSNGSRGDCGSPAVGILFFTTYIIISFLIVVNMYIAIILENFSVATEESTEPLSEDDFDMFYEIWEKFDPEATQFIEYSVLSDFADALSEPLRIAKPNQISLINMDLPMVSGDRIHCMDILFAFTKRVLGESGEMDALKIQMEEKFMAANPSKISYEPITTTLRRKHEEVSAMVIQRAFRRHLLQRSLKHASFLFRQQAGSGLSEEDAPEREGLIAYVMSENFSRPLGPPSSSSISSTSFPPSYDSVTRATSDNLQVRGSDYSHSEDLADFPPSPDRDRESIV
Method: as §1, §2, §3, §4

[11] = target: T9, 5HT3a (Homo sapiens, UniProt P46098); experiment: Ion channel panel (IonWorks Barracuda): 5HT3a; format: cell-based
T9 construct: host or cells: HEK293 or CHO
T9 sequence (P46098 whole entry, looked up): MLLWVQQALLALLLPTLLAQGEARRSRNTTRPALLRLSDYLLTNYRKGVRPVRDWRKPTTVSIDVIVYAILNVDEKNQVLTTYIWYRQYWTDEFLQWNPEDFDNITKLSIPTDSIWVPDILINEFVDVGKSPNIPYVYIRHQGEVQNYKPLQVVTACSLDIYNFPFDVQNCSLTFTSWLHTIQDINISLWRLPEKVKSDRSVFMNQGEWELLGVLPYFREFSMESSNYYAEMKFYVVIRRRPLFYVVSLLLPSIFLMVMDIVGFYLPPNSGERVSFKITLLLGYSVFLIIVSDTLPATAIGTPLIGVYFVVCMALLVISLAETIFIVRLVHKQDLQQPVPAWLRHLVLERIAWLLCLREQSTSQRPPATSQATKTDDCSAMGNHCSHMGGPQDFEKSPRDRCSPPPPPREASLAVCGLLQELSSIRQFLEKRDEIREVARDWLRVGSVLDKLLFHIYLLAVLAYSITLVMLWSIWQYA
Method: as §1, §2, §3, §4

[12] = target: T10, TRPV1 (Homo sapiens, UniProt Q8NER1); experiment: Ion channel panel (IonWorks Barracuda): TRPV1; format: cell-based; settings: 100% = no change, <100% = inhibition
T10 construct: host or cells: HEK293 or CHO
Method: as §1, §2, §3, §4

[13] = target: T11, Kir2.1 (Homo sapiens, UniProt P63252); experiment: Ion channel panel (IonWorks Barracuda): Kir2.1; format: cell-based; settings: 100% = no change, <100% = inhibition
T11 construct: host or cells: HEK293 or CHO
Method: as §1, §2, §3, §4

[14] = system: GABA; experiment: Ion channel panel (IonWorks Barracuda): GABA; format: cell-based; settings: 100% = no change, <100% = inhibition
Method: as §1, §2, §3, §4

[15] = target: T12, Kv1.2 (Homo sapiens, UniProt P16389); experiment: cell-based; format: cell-based; settings: 100% = no change, <100% = inhibition
T12 construct: host or cells: HEK293 or CHO
Method: as §1, §2, §3, §4

[16] = target: T13, Kv1.3 (Homo sapiens, UniProt P22001); experiment: cell-based; format: cell-based; settings: 100% = no change, <100% = inhibition
T13 construct: host or cells: HEK293 or CHO
Method: as §1, §2, §3, §4

[17] = target: T14, Kv1.1 (Homo sapiens, UniProt Q09470); experiment: cell-based; format: cell-based; settings: 100% = no change, <100% = inhibition
T14 construct: host or cells: HEK293 or CHO
Method: as §1, §2, §3, §4

[18] = target: T15, α3β4 (Homo sapiens, UniProt P30926+P32297); experiment: Ion channel panel (IonWorks Barracuda): α3β4; format: cell-based; settings: 100% = no change, <100% = inhibition
T15 construct: host or cells: HEK293 or CHO
T15 sequence (P30926 22-498): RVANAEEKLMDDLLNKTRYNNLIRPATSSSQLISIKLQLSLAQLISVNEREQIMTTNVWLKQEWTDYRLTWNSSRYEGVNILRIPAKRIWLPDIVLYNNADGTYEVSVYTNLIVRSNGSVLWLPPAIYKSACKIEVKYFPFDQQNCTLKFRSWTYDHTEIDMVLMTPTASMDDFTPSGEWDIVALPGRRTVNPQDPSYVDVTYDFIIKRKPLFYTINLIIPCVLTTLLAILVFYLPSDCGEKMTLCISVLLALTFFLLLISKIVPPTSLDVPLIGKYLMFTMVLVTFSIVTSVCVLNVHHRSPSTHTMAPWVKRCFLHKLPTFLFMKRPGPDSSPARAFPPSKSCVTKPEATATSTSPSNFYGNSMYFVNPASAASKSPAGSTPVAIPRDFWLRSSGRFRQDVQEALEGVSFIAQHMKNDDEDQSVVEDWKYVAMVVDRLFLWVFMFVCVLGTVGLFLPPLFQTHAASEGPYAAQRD
T15 sequence (P32297 32-505): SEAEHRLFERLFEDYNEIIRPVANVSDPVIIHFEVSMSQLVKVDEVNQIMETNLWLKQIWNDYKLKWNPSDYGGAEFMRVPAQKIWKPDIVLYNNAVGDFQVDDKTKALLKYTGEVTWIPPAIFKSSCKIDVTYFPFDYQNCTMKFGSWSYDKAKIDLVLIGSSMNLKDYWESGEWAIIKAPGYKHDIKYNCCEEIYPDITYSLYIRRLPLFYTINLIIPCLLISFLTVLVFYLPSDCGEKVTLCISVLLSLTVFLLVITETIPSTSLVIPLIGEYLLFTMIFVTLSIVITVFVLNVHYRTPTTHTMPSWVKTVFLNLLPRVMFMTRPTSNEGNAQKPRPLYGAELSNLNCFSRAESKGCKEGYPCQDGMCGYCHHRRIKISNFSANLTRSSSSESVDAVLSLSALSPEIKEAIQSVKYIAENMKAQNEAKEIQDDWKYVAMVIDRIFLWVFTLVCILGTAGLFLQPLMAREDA
Method: as §1, §2, §3, §4

[19] = first of two Nav1.7 columns (probably TP1)
[20] = second of two Nav1.7 columns (probably TP2)
[21] = first of two Nav1.5 columns (probably TP1)
[22] = second of two Nav1.5 columns (probably TP2)

## 3 (GSSEKDCIKHLQRCRENKDCCSKKCSRRGTNPEKRCR) [compound 3]
[1]; peptide at 0.2 μM
  Activity of Cav2.1 with peptide, expressed as a percentage of the reference compound: 102%
[1]; peptide at 20 μM
  Activity of Cav2.1 with peptide (percentage of the reference compound): 131%
[2]; peptide at 0.2 μM
  Activity of Cav2.2 with peptide, expressed as a percentage of the reference compound: 103%
[2]; peptide at 20 μM
  Activity of Cav2.2 with peptide (percentage of the reference compound): 110%
[3]; peptide at 0.2 μM
  Activity of Kv2.1 with peptide, expressed as a percentage of the reference compound: 80%
[3]; peptide at 20 μM
  Activity of Kv2.1 with peptide (percentage of the reference compound): 81%
[4]; peptide at 0.2 μM
  Activity of NR2B with peptide, expressed as a percentage of the reference compound: 93%
[4]; peptide at 20 μM
  Activity of NR2B with peptide (percentage of the reference compound): 74%
[5]; [19]
  Activity of Nav1.7 with peptide, expressed as a percentage of the reference compound: 107%
  Activity of Nav1.7 with peptide (percentage of the reference compound): 90%
[5]; [20]
  Activity of Nav1.7 with peptide, expressed as a percentage of the reference compound: 113%
  Activity of Nav1.7 with peptide (percentage of the reference compound): 68%
[6]; peptide at 0.2 μM
  Activity of TRPA1 with peptide, expressed as a percentage of the reference compound: 105%
[6]; peptide at 20 μM
  Activity of TRPA1 with peptide (percentage of the reference compound): 117%
[7]; peptide at 0.2 μM
  Activity of NR2A with peptide, expressed as a percentage of the reference compound: 97%
[7]; peptide at 20 μM
  Activity of NR2A with peptide (percentage of the reference compound): 100%
[8]; peptide at 0.2 μM
  Activity of a4b2 with peptide, expressed as a percentage of the reference compound: 93%
[8]; peptide at 20 μM
  Activity of a4b2 with peptide (percentage of the reference compound): 91%
[9]; peptide at 0.2 μM
  Activity of hERG with peptide, expressed as a percentage of the reference compound: 121%
[9]; peptide at 20 μM
  Activity of hERG with peptide (percentage of the reference compound): 81%
[10]; [21]
  Activity of Nav1.5 with peptide, expressed as a percentage of the reference compound: 113%
  Activity of Nav1.5 with peptide (percentage of the reference compound): 114%
[10]; [22]
  Activity of Nav1.5 with peptide, expressed as a percentage of the reference compound: 111%
  Activity of Nav1.5 with peptide (percentage of the reference compound): 115%
[11]
  Activity of 5HT3a with peptide (percentage of the reference compound): 98%
  Activity of 5HT3a with peptide, expressed as a percentage of the reference compound: 109%
[12]; peptide at 0.2 μM
  Activity of TRPV1 with peptide, expressed as a percentage of the reference compound: 107%
[12]; peptide at 20 μM
  Activity of TRPV1 with peptide (percentage of the reference compound): 95%
[13]; peptide at 0.2 μM
  Activity of Kir2.1 with peptide, expressed as a percentage of the reference compound: 107%
[13]; peptide at 20 μM
  Activity of Kir2.1 with peptide (percentage of the reference compound): 93%
[14]; peptide at 0.2 μM
  Activity of GABA with peptide, expressed as a percentage of the reference compound: 77%
[14]; peptide at 20 μM
  Activity of GABA with peptide (percentage of the reference compound): 111%
[15]; peptide at 0.2 μM
  Activity of Kv1.2 with peptide, expressed as a percentage of the reference compound: 88%
[15]; peptide at 20 μM
  Activity of Kv1.2 with peptide (percentage of the reference compound): 45%
[16]; peptide at 0.2 μM
  Activity of Kv1.3 with peptide, expressed as a percentage of the reference compound: 92%
[16]; peptide at 20 μM
  Activity of Kv1.3 with peptide (percentage of the reference compound): 87%
[17]; peptide at 0.2 μM
  Activity of Kv1.1 with peptide, expressed as a percentage of the reference compound: 99%
[17]; peptide at 20 μM
  Activity of Kv1.1 with peptide (percentage of the reference compound): 73%
[18]; peptide at 0.2 μM
  Activity of a3b4 with peptide, expressed as a percentage of the reference compound: 99%
[18]; peptide at 20 μM
  Activity of a3b4 with peptide (percentage of the reference compound): 92%
